Drawing on paper PMC4973710, this text covers second-order rate constant of ferric cyt c reduction by equimolar NADPH-reduced CPR-DA, first kinetic phase (UV-Vis double-mixing stopped-flow) and second-order rate constant of ferric cyt c reduction by equimolar NADPH-reduced CPR-DA, second kinetic phase (UV-Vis double-mixing stopped-flow) for one substance.

The assay has as its target CPR-DA: human cytochrome P450 reductase doubly labelled with Cy5 (donor) and Alexa 750 (acceptor) (human) (UniProt P16435).
Chain of UniProt P16435 (P16435 61-677): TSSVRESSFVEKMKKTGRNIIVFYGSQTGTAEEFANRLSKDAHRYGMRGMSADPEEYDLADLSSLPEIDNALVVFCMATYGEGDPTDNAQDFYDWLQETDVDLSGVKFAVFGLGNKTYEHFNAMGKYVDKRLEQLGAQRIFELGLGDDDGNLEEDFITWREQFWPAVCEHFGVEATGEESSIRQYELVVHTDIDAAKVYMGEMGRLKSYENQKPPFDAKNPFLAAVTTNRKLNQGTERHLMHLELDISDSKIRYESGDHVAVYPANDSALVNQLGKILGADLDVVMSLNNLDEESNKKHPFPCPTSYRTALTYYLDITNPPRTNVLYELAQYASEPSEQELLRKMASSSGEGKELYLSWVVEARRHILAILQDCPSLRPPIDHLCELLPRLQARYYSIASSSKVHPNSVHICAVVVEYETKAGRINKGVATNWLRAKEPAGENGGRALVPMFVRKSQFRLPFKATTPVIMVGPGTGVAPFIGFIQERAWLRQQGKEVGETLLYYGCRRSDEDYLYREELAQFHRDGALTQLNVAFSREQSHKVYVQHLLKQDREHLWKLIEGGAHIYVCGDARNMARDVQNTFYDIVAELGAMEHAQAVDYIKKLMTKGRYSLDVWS

Take “bovine heart cytochrome c (from UniProt P62894 1-105) (natural protein)”: the second-order rate constant of ferric cyt c reduction by equimolar NADPH-reduced CPR-DA, first kinetic phase (UV-Vis double-mixing stopped-flow) came to 1.01e+06 M⁻¹ s⁻¹ and the second-order rate constant of ferric cyt c reduction by equimolar NADPH-reduced CPR-DA, second kinetic phase (UV-Vis double-mixing stopped-flow) is 340000 M⁻¹ s⁻¹.
